In the nanobody polyreactivity screen of Harvey et al. (2022):

Assay: yeast display, Sf9 membrane polyspecificity reagent, FACS + sequencing; frameworks hold sequencing errors
Method in brief: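 Sorting gates, low and high (top ~1%), were placed on anti-HA fluorescence to track expression and on streptavidin fluorescence to track reagent binding. A clone's polyreactivity label is taken from the gate it came out of. The reagent was 10% biotinylated, detergent-solubilized Sf9 membrane, applied for 1 hour at 4 °C to galactose-induced yeast display cells.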

Sequence	polyreactivity (PSR sort gate)
QVQLVESGGGLVQAGGSLRLSCAASGSIFGYNAMGWYRPAPGKERELVAAISRSGGSTYYADSVKGRFTISRDNAKNTVYLQMNSLKPEDTAVSYCATGYYGYRYGYWGQGTQVTVSS	high polyreactivity
QVQLVESGGGLVQAGGSLRLSCAASGSIFGYNAMGWYRQAPGKERELVADISSGDSTNYADSVKGRFTISRDNAKNTVYLQMNSLKPEDTAVYYCAADFTYQGSSANDYWGQGTQVTVSS	low polyreactivity
QVQLVESGGGLVQAGGSLRLSCAASGSIFGYNAMGWYRQAPGKERELVAVINASGASTYYADSVKGRFTISRDNAKNTVYLQMNSLKPEDTAVYYCAKDPFPFPGGDYWGQGTQVTVSS	low polyreactivity
QVQLVESGGGLVQAGGSLRLSCAASGSIFGYNAMGWYRQAPGKESELVAAISSSGGRTYYADSVKGRFTNSRDNAKNTVYLQMNSLKPEDTAVYYCAALGLYGDYLWYDYWGQGTQVTVSS	high polyreactivity
QVQLVESGGGLVQAGGSLRLSCAASGSIFGYNAMGWYRQAPGKETELVAVITRSDGSTYYADSVKGRFTISRDNAKNTVYLQMNSLKPVDTAVYYCNAETHVYYWGVVIYEYNYWGQGTQVTVSS	low polyreactivity
QVQLVESGGGLVQAGGSLRLSCAASGSIFGYNVMGWYRQAPGKERELVAAITVNGGRTYYADSVKGRFTISRDNAKNTVYLQINSLKAEDTAVYYCAARVTGTQRSGYYWGQGTQVTVSS	high polyreactivity
QVQLVESGGGLVQAGGSLRLSCAASGSIFGYYAMGCYRQAPGKERELDAAISASGGSTYYADSVKGRFTISRDNAKITVYFHMNSLKPEDTAVYYCAAVRSVTYIWARYPYGLEYCGQGTQVTVSS	high polyreactivity
QVQLVESGGGLVQAGGSLRLSCAASGSIFGYYAMGWSRQAPGKERELVAAISASGGSTYYADSVKGRFTISRDNAKNTVYLQMNSLKPEDTAVYYCAKVDWEQGFWVEYDHYDYWGQGTQVTVSS	high polyreactivity
QVQLVESGGGLVQAGGSLRLSCAASGSIFGYYAMGWYRKAPGKERELVAAISWSDGSTYYADSVKGRFTISRDNAKNTVYLQMNSLNPEDTAVYYCAARFTPYITSDDGHYDYWGQGTQVTVSS	low polyreactivity
QVQLVESGGGLVQAGGSLRLSCAASGSIFGYYAMGWYRPATGKEREFVAAITSSGGSTYYADSVKGRFTISRDNAKNTVYLQMNSLKPEDTAVYYCNAGAWQLYWYRYEYWGQGTQVTVSS	high polyreactivity
QVQLVESGGGLVQAGGSLRLSCAASGSIFGYYAMGWYRQAPGKEREFDADINSRDGGTYYADSVKGRFTISRDNAKNTVYLQMNSLKPEDTAVYYCAAPYYAAWVAVAIEYDYWGQGTQVTVSS	low polyreactivity
QVQLVESGGGLVQAGGSLRLSCAASGSIFGYYAMGWYRQAPGKEREFVAAITWNGGSTYYADSVKGRFTISRDNAKNTVYLQMNSLKPEDTAVYYCARTSYARYRNGWTYDHWGQGTQVTVSS	low polyreactivity
QVQLVESGGGLVQAGGSLRLSCAASGSIFGYYAMGWYRQAPGKERELVAAISGSGGSTYYADSVKGRFTISRDNAKNTVYLQMNSLKPEDTAVYYCAAAYHGRHYYWGQGTQVTVSS	high polyreactivity
QVQLVESGGGLVQAGGSLRLSCAASGSIFGYYAMGWYRQAPGKERELVAAISWSGGSTYYADSVKGRFTISRDNAKNTVYLQMNSLKPEDTAVYYCAATSRGNDSQKYYYWGQGTQVTVSS	low polyreactivity
QVQLVESGGGLVQAGGSLRLSCAASGSIFGYYAMGWYRQAPGKERELVAAITSDGSTYYADSVKGRFTITRDNAKNTVNLQMNSLKPEDTAVYYCAAYSWYYTSRYDYWGQGTQVTVSS	low polyreactivity
QVQLVESGGGLVQAGGSLRLSCAASGSIFGYYAMGWYRQAPGKERELVARIRSTGSTNYADSVKGRFTISRDNAKNTVYLQMNSLKPEDTAVFYCNKLAHRKGGYWGQGTQVTVSS	high polyreactivity

Sequence	polyreactivity (PSR sort gate)
QVQLVESGGGLVQAGGSLRLSCAASGSIFGYYAMGWYRQAPGKERELVASISWSGTSTYYADSVKGRFTISRDNAKNTVYLQMNSLKPEDTAVYYCATKGLFTNSPLYVSAYDYWGQGTQVTVSS	low polyreactivity
QVQLVESGGGLVQAGGSLRLSCAASGSIFGYYAMGWYRQAPGKERELVATISNDGSTKYADSVKGRFTISRDNAKNTVYLQMNSLKPEDSAVYYCAADSARHGRDTYQPEYRNDYWGQGTQVTVSS	low polyreactivity
QVQLVESGGGLVQAGGSLRLSCAASGSIFGYYDMGWYRQAPGKERELVAAISSRGGITYYADSVKGRFTISRDHAKNTVYLQMNSLKPEDTAVYYCAAYAYFHRREGYWVQGTQVTVSS	high polyreactivity
QVQLVESGGGLVQAGGSLRLSCAASGSIFGYYGMGWYRQAPGKERELVAAISYRGGYTYYADSVKGRFTISRDNAKNTVSLQMNSLKPEDTAVYYCNAGGRRRIFAHSSTGDYWGQGTQVTVSS	high polyreactivity
QVQLVESGGGLVQAGGSLRLSCAASGSIFGYYTMGLYRQAPGKERELVAAITSGGSTNYADSVKGRFTISRDNAKNTVYLQMNSLKPEDTAVYYCAKVSYYPWRYDYWGQGTQVTVSS	low polyreactivity
QVQLVESGGGLVQAGGSLRLSCAASGSIFGYYTMGWYRKAPGKERELVAAITSGGSTNYADSVKGRFTISRDNAKNTVYLQMNSLKPEDTAVYYCAKVSYYPWRYDYWGQGTQVTVSS	low polyreactivity
QVQLVESGGGLVQAGGSLRLSCAASGSIFGYYTMGWYRQAPGKEREFVAAISWSGGSTYYADSVKGRFTISRDNAKNTVYLQMTSLKPEDTAVYYCNADVYWEYDYWGQGTQVTVSS	low polyreactivity
QVQLVESGGGLVQAGGSLRLSCAASGSIFGYYTMGWYRQAPGKERELVAAITYSGGSTYYADSVKGRFTISRDNAKNTVYLQMNSLKPEDTAVYYCNAKSAAHRYVRRHDYWGQGTQVTVSS	low polyreactivity
QVQLVESGGGLVQAGGSLRLSCAASGSIFGYYTMGWYRQAPGKERELVATISRSGGSTYYADSVKGRFTISRDNAKNTVYLQMNSLKPEDTAVYYCGARSWGGYDSRGYWGQGTQVTVSS	high polyreactivity
QVQLVESGGGLVQAGGSLRLSCAASGSIFGYYVMGWDRQAPGKERELVAAITRSGSTYYADSVKGRFTISRDNAKNTVYLQMNSLKPEDTAVYYCAADGSYYWYPHTTYDYWGQGTQVTVSS	low polyreactivity
QVQLVESGGGLVQAGGSLRLSCAASGSIFHFNAMGWYRQAPGKERELVATITSSGSSTYYADSVKGRFTISRDNAKNTVYLQMNSLKPEDTAVYYCAAGWFWQMDYWGQGTQVTVSS	low polyreactivity
QVQLVESGGGLVQAGGSLRLSCAASGSIFHIYMGGYRQAPGKERELVASMSYRGGTTYYADSVKGRFTISRDNAKNTVYLQKNSLKPEDTAVYYCNVHRDFYHYGRYGHMDYWGQGC	low polyreactivity
QVQLVESGGGLVQAGGSLRLSCAASGSIFHLYAMGWYRQAPGKEREFVAAISSSGGLTYYADSVKGRFTISRDNAKNTVYLQMNSLKPEDTEVYYCATAEQYGTKLRKVSYQYDYWGQGTQVTVSS	low polyreactivity
QVQLVESGGGLVQAGGSLRLSCAASGSIFHPYAMGWYRQAPGKERELVAAISKSGGNTYYADSVKGRFTISRDNAKNTVYLQMNSLKPEDTAVYYCAALDYWGQGTQLTVSS	low polyreactivity
QVQLVESGGGLVQAGGSLRLSCAASGSIFHPYGMGWYRQAPGKERELVAAITSSGGDKYYADSVKGRFTISRDNAKNTVYLQMNSLKPEDTAVYYCAATGLPGYYAYDYWGQGTQVTVSS	low polyreactivity
QVQLVESGGGLVQAGGSLRLSCAASGSIFHRYAMGWYRQAPGKERELVAAINRGGSSYADSVKGRFTISLDNAKNTVYLQMNRLNPEDTAVYYCATRNIGRSTGPFYWGYYYWGQGTQVTVSS	high polyreactivity
